The results in this text go back to patent publication US20160009806A1 (Seagen, published 2016).

The target in experiment [1] is T1, human integrin αvβ6 on cells (human, UniProt P06756 31-1048; P18564 22-788). In words: cell-based or functional assay.
For experiment [2], the target named is T1, human integrin αvβ6 on cells. Kind of experiment: competition binding on 293F cells expressing human αvβ6 (FIG. 2). On the procedure: (§1) 1×10⁵ antigen expressing cells were aliquoted in each well of a 96-well v-bottom plate on ice. […] Cells were pelleted and washed 3 times with PBS. The cells were pelleted and resuspended in 125 uL of PBS/BSA. Fluorescence was analyzed by flow cytometery, using percent of saturated fluorescent signal to determine percent labeled murine 15H3 bound and to subsequently extrapolate the EC50 by fitting the data to a sigmoidal dose-response curve with variable slope.

The target is the same in experiment [3]. In words: competition binding, flow cytometry on 293F cells expressing αvβ6; competitor 2 nM AlexaFluor-647 m15H3. On the procedure:
as §1
In general terms: Flow cytometry measures light scatter and fluorescence of single cells or particles in a stream.

T1 sequence (P06756 31-1048, chain 1 of 2): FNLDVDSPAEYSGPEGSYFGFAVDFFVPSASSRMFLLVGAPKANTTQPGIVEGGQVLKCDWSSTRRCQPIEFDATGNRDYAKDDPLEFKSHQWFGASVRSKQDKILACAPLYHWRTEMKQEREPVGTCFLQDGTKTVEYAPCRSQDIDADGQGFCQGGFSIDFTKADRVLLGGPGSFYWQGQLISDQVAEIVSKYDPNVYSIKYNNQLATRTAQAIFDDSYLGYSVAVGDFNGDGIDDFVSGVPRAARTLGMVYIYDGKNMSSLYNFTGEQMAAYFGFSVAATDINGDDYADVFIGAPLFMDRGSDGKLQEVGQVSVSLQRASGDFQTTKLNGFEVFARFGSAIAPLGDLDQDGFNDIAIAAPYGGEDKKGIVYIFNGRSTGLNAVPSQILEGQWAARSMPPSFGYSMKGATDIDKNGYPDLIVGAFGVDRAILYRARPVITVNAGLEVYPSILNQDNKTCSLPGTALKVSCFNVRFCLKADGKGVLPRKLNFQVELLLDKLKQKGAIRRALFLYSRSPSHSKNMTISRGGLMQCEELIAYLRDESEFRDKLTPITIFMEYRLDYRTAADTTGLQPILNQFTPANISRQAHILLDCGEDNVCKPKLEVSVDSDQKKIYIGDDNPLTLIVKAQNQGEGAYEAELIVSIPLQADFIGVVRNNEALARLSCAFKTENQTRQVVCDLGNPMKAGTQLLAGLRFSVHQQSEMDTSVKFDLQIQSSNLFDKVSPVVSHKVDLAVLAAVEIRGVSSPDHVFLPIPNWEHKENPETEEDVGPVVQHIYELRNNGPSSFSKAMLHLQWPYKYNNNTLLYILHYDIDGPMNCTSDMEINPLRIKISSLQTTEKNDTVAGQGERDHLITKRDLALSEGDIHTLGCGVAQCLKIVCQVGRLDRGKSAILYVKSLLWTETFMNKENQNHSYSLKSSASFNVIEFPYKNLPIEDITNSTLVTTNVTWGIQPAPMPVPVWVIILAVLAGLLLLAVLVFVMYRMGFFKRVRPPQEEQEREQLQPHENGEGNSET
T1 sequence (P18564 22-788, chain 2 of 2): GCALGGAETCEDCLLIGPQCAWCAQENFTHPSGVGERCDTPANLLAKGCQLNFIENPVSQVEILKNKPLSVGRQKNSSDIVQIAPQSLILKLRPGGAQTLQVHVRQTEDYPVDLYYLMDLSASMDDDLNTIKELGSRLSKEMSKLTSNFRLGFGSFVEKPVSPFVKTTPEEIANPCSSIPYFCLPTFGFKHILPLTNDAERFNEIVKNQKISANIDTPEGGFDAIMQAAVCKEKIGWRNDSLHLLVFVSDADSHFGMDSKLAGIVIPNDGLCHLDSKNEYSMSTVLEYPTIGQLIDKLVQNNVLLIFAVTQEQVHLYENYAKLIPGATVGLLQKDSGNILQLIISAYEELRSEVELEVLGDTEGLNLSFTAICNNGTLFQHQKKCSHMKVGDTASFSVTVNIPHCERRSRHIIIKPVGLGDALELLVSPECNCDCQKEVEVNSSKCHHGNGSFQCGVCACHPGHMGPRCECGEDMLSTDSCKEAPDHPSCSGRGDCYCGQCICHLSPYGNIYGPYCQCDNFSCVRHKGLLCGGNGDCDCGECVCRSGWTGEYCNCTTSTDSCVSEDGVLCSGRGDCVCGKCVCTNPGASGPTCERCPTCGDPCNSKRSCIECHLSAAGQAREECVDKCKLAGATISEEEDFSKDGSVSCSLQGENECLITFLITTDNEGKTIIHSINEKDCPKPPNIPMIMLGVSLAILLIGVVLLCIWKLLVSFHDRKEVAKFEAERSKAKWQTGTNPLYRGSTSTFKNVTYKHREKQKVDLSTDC

B1: murine 15H3 antibody conjugated with vcMMAE (antibody, V domains shown)
VH: EVQLQQSGPELVKPGASVKISCKASGYSFSGYFMNWVKQSHGQSLEWIGLINPYNGDSFYNQKFKGKATLTVQKSSSTAHMELQSLTSEDSAVFYCVRGLRRDFDYWGQGTPLTVSS
VL: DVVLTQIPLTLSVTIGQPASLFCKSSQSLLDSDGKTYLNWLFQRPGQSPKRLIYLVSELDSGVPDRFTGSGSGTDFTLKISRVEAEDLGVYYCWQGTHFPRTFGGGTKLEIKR
modifications: vcMMAE drug-linker conjugated to the antibody (site and loading not stated for the murine ADC)
B1: in experiment [1], the “IC50 (ng/ml), cytotoxicity assay on 5637 cells (36 x10^3 αvβ6 copies/cell)” value is > 1000 ng/mL; the “IC50 (ng/ml), cytotoxicity assay on BxPC3 cells (37 x10^3 αvβ6 copies/cell)” value came to 34 ng/mL; the “IC50 (ng/ml), cytotoxicity assay on Capan-1 cells (19 x10^3 αvβ6 copies/cell)” value stood at 365 ng/mL; the “IC50 (ng/ml), cytotoxicity assay on HPAFII cells (22 x10^3 αvβ6 copies/cell)” value is 76 ng/mL. In experiment [1], the “IC50 (ng/ml), cytotoxicity assay on HupT4 cells (184 x10^3 αvβ6 copies/cell)” value was 35 ng/mL; the “IC50 (ng/ml), cytotoxicity assay on Panc08.13 cells (137 x10^3 αvβ6 copies/cell)” value was 93 ng/mL; the “IC50 (ng/ml), cytotoxicity assay on RT4 cells (42 x10^3 αvβ6 copies/cell)” value was > 1000 ng/mL; the “IC50 (ng/ml), cytotoxicity assay on SW780 cells (80 x10^3 αvβ6 copies/cell)” value is 614 ng/mL.

B2: murine 15H3 antibody conjugated with mcMMAF (antibody, V domains shown)
VH: EVQLQQSGPELVKPGASVKISCKASGYSFSGYFMNWVKQSHGQSLEWIGLINPYNGDSFYNQKFKGKATLTVQKSSSTAHMELQSLTSEDSAVFYCVRGLRRDFDYWGQGTPLTVSS
VL: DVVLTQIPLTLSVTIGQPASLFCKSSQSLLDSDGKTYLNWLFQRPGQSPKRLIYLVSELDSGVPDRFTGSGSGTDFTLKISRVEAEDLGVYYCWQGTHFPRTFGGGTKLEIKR
modifications: mcMMAF drug-linker conjugated to the antibody (site and loading not stated for the murine ADC)
Take B2: in experiment [1], the “IC50 (ng/ml), cytotoxicity assay on 5637 cells (36 x10^3 αvβ6 copies/cell)” value was > 1000 ng/mL; the “IC50 (ng/ml), cytotoxicity assay on BxPC3 cells (37 x10^3 αvβ6 copies/cell)” value turned out to be 7 ng/mL; the “IC50 (ng/ml), cytotoxicity assay on Capan-1 cells (19 x10^3 αvβ6 copies/cell)” value was 1510 ng/mL; the “IC50 (ng/ml), cytotoxicity assay on HPAFII cells (22 x10^3 αvβ6 copies/cell)” value was > 2000 ng/mL. Besides, in experiment [1], the “IC50 (ng/ml), cytotoxicity assay on HupT4 cells (184 x10^3 αvβ6 copies/cell)” value is 16 ng/mL; the “IC50 (ng/ml), cytotoxicity assay on Panc08.13 cells (137 x10^3 αvβ6 copies/cell)” value worked out at 1400 ng/mL; the “IC50 (ng/ml), cytotoxicity assay on RT4 cells (42 x10^3 αvβ6 copies/cell)” value was > 1000 ng/mL; the “IC50 (ng/ml), cytotoxicity assay on SW780 cells (80 x10^3 αvβ6 copies/cell)” value is 86 ng/mL.

B3: humanized 15H3 antibody HBLA (antibody, V domains shown)
VH: QVQLVQSGAEVKKPGASVKVSCKASGYSFSGYFMNWVRQAPGQGLEWMGLINPYNGDSFYNQKFKGRVTMTRDTSTSTVYMELSSLRSEDTAVYYCARGLRRDFDYWGQGTLVTVSS
VL: DVVMTQSPLSLPVTLGQPASISCKSSQSLLDSDGKTYLNWFQQRPGQSPRRLIYLVSELDSGVPDRFSGSGSGTDFTLKISRVEAEDVGVYYCWQGTHFPRTFGGGTKLEIKR
notes: HB heavy chain with LA light chain of the first humanization round
Take B3: in experiment [2], the binding result was “binds”.

B4: humanized 15H3 antibody HSLC (antibody, V domains shown)
VH: QVQLVQSGAEVKKPGASVKVSCKASGYSFSGYFMNWVRQAPGQGLEWMGLINPYNGDSFYNQKFKGRVTMTRQTSSSTAYMELSSLRSEDTAVYYCARGLRRDFDYWGQGTLVTVSS
VL: DVVMTQSPLSLPVTLGQPASISCKSSQSLLDSDGKTYLNWLFQRPGQSPRRLIYLVSELDSGVPDRFSGSGSGTDFTLKISRVEAEDVGVYYCWQGTHFPRTFGGGTKLEIKR
For orientation: EC50 means the concentration giving half of the maximal effect. A lower EC50 goes with higher potency in that assay. Take B4: the response in experiment [3] was half-maximal at 32.5 nM (EC50).

B5: humanized 15H3 antibody HRLG (antibody, V domains shown)
VH: QVQLVQSGAEVKKPGASVKVSCKASGYSFSGYFMNWVRQAPGQGLEWMGLINPYNGDSFYNQKFKGRVTMTRDTSSSTAYMELSSLRSEDTAVYYCARGLRRDFDYWGQGTLVTVSS
VL: DVVLTQSPLSLPVTLGQPASISCKSSQSLLDSDGKTYLNWLFQRPGQSPRRLIYLVSELDSGVPDRFSGSGSGTDFTLKISRVEAEDVGVYYCWQGTHFPRTFGGGTKLEIKR
Take B5: in experiment [3], the EC50 was 23.9 nM.

B6: humanized 15H3 antibody HLLC (antibody, V domains shown)
VH: QVQLVQSGAEVKKPGASVKVSCKASGYSFSGYFMNWVRQAPGQGLEWMGLINPYNGDSFYNQKFKGRVTMTRDKSSSTAYMELSSLRSEDTAVYYCARGLRRDFDYWGQGTLVTVSS
VL: DVVMTQSPLSLPVTLGQPASISCKSSQSLLDSDGKTYLNWLFQRPGQSPRRLIYLVSELDSGVPDRFSGSGSGTDFTLKISRVEAEDVGVYYCWQGTHFPRTFGGGTKLEIKR
notes: also called h15H3-2
Consider B6, for which, in experiment [3], a half-maximal response (EC50) required 0.74 nM.

B7: humanized 15H3 antibody HMLG (antibody, V domains shown)
VH: QVQLVQSGAEVKKPGASVKVSCKASGYSFSGYFMNWVRQAPGQGLEWMGLINPYNGDSFYNQKFKGRVTMTRQKSSSTAYMELSSLRSEDTAVYYCARGLRRDFDYWGQGTLVTVSS
VL: DVVLTQSPLSLPVTLGQPASISCKSSQSLLDSDGKTYLNWLFQRPGQSPRRLIYLVSELDSGVPDRFSGSGSGTDFTLKISRVEAEDVGVYYCWQGTHFPRTFGGGTKLEIKR
In experiment [3], B7 showed an EC50 of 1.07 nM.

B8: humanized 15H3 antibody HBLF (antibody, V domains shown)
VH: QVQLVQSGAEVKKPGASVKVSCKASGYSFSGYFMNWVRQAPGQGLEWMGLINPYNGDSFYNQKFKGRVTMTRDTSTSTVYMELSSLRSEDTAVYYCARGLRRDFDYWGQGTLVTVSS
VL: DVVMTQSPLSLPVTLGQPASLFCKSSQSLLDSDGKTYLNWLFQRPGQSPKRLIYLVSELDSGVPDRFTGSGSGTDFTLKISRVEAEDVGVYYCWQGTHFPRTFGGGTKLEIKR
notes: HB heavy chain with LF light chain of the first humanization round
B8: the binding result in experiment [2] was “binds”.

B9: humanized 15H3 antibody HRLC (antibody, V domains shown)
VH: QVQLVQSGAEVKKPGASVKVSCKASGYSFSGYFMNWVRQAPGQGLEWMGLINPYNGDSFYNQKFKGRVTMTRDTSSSTAYMELSSLRSEDTAVYYCARGLRRDFDYWGQGTLVTVSS
VL: DVVMTQSPLSLPVTLGQPASISCKSSQSLLDSDGKTYLNWLFQRPGQSPRRLIYLVSELDSGVPDRFSGSGSGTDFTLKISRVEAEDVGVYYCWQGTHFPRTFGGGTKLEIKR
In experiment [3], B9 registered an EC50 of 26.7 nM. In other words, the double-digit nanomolar range.

B10: humanized 15H3 antibody HBLE (antibody, V domains shown)
VH: QVQLVQSGAEVKKPGASVKVSCKASGYSFSGYFMNWVRQAPGQGLEWMGLINPYNGDSFYNQKFKGRVTMTRDTSTSTVYMELSSLRSEDTAVYYCARGLRRDFDYWGQGTLVTVSS
VL: DVVMTQSPLSLPVTLGQPASISCKSSQSLLDSDGKTYLNWFQQRPGQSPRRLIYLVSELDSGVPDRFTGSGSGTDFTLKISRVEAEDVGVYYCWQGTHFPRTFGGGTKLEIKR
notes: HB heavy chain with LE light chain of the first humanization round
With B10, the binding result in experiment [2] is “binds”.

B11: humanized 15H3 antibody HNLG (antibody, V domains shown)
VH: QVQLVQSGAEVKKPGASVKVSCKASGYSFSGYFMNWVRQAPGQGLEWMGLINPYNGDSFYNQKFKGRVTMTRQTSTSTVYMELSSLRSEDTAVYYCARGLRRDFDYWGQGTLVTVSS
VL: DVVLTQSPLSLPVTLGQPASISCKSSQSLLDSDGKTYLNWLFQRPGQSPRRLIYLVSELDSGVPDRFSGSGSGTDFTLKISRVEAEDVGVYYCWQGTHFPRTFGGGTKLEIKR
Turning to B11, it took 3.16 nM to reach a half-maximal effect in experiment [3] (EC50).

B12: humanized 15H3 antibody HLLG (antibody, V domains shown)
VH: QVQLVQSGAEVKKPGASVKVSCKASGYSFSGYFMNWVRQAPGQGLEWMGLINPYNGDSFYNQKFKGRVTMTRDKSSSTAYMELSSLRSEDTAVYYCARGLRRDFDYWGQGTLVTVSS
VL: DVVLTQSPLSLPVTLGQPASISCKSSQSLLDSDGKTYLNWLFQRPGQSPRRLIYLVSELDSGVPDRFSGSGSGTDFTLKISRVEAEDVGVYYCWQGTHFPRTFGGGTKLEIKR
B12 registered an EC50 in experiment [3] of 0.97 nM.

B13: humanized 15H3 antibody HBLB (antibody, V domains shown)
VH: QVQLVQSGAEVKKPGASVKVSCKASGYSFSGYFMNWVRQAPGQGLEWMGLINPYNGDSFYNQKFKGRVTMTRDTSTSTVYMELSSLRSEDTAVYYCARGLRRDFDYWGQGTLVTVSS
VL: DVVMTQSPLSLPVTLGQPASLFCKSSQSLLDSDGKTYLNWFQQRPGQSPRRLIYLVSELDSGVPDRFSGSGSGTDFTLKISRVEAEDVGVYYCWQGTHFPRTFGGGTKLEIKR
notes: HB heavy chain with LB light chain of the first humanization round
In the case of B13, the binding result in experiment [2] is reported as “binds”.

B14: humanized 15H3 antibody HMLC (antibody, V domains shown)
VH: QVQLVQSGAEVKKPGASVKVSCKASGYSFSGYFMNWVRQAPGQGLEWMGLINPYNGDSFYNQKFKGRVTMTRQKSSSTAYMELSSLRSEDTAVYYCARGLRRDFDYWGQGTLVTVSS
VL: DVVMTQSPLSLPVTLGQPASISCKSSQSLLDSDGKTYLNWLFQRPGQSPRRLIYLVSELDSGVPDRFSGSGSGTDFTLKISRVEAEDVGVYYCWQGTHFPRTFGGGTKLEIKR
As to B14, in experiment [3], the midpoint of the response, the EC50, lay at 0.49 nM.

B15: humanized 15H3 antibody HNLC (antibody, V domains shown)
VH: QVQLVQSGAEVKKPGASVKVSCKASGYSFSGYFMNWVRQAPGQGLEWMGLINPYNGDSFYNQKFKGRVTMTRQTSTSTVYMELSSLRSEDTAVYYCARGLRRDFDYWGQGTLVTVSS
VL: DVVMTQSPLSLPVTLGQPASISCKSSQSLLDSDGKTYLNWLFQRPGQSPRRLIYLVSELDSGVPDRFSGSGSGTDFTLKISRVEAEDVGVYYCWQGTHFPRTFGGGTKLEIKR
For the molecule B15, the EC50 in experiment [3] is 11.1 nM.

B16: humanized 15H3 antibody HBLD (antibody, V domains shown)
VH: QVQLVQSGAEVKKPGASVKVSCKASGYSFSGYFMNWVRQAPGQGLEWMGLINPYNGDSFYNQKFKGRVTMTRDTSTSTVYMELSSLRSEDTAVYYCARGLRRDFDYWGQGTLVTVSS
VL: DVVMTQSPLSLPVTLGQPASISCKSSQSLLDSDGKTYLNWFQQRPGQSPKRLIYLVSELDSGVPDRFSGSGSGTDFTLKISRVEAEDVGVYYCWQGTHFPRTFGGGTKLEIKR
notes: HB heavy chain with LD light chain of the first humanization round
With B16, in experiment [2], the binding result was “binds”.

B17: humanized 15H3 antibody HULC (antibody, V domains shown)
VH: QVQLVQSGAEVKKPGASVKVSCKASGYSFSGYFMNWVRQAPGQGLEWMGLINPYNGDSFYNQKFKGRVTMTRQKSSSTAYMELSSLRSEDTAVYYCVRGLRRDFDYWGQGTLVTVSS
VL: DVVMTQSPLSLPVTLGQPASISCKSSQSLLDSDGKTYLNWLFQRPGQSPRRLIYLVSELDSGVPDRFSGSGSGTDFTLKISRVEAEDVGVYYCWQGTHFPRTFGGGTKLEIKR
Take B17: the EC50 in experiment [3] turned out to be 0.93 nM. This lies in the sub-nanomolar range.
